# Data published in US20170072013A1 (MEDINCELL, published 2017).
# Square brackets hold non-standard residues; d marks the D form.
# T1: human TREK-1 potassium channel expressed in the h-TREK-1/HEK cell line (human, UniProt O95069 1-426)
# T1 sequence (looked up): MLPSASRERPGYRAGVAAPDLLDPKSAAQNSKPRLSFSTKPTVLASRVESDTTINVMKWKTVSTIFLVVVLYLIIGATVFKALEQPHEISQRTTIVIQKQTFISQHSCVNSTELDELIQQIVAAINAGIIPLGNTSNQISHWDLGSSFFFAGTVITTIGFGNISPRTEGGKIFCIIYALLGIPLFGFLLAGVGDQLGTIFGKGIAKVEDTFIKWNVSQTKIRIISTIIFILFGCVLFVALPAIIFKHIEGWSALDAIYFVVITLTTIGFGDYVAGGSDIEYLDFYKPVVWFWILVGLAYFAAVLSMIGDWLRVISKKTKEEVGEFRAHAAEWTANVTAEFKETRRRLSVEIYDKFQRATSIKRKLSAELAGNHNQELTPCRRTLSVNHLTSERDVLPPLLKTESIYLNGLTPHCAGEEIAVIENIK
# B1: Analog 3 (SEQ ID NO:4), Ac-rlGwsvGipGswrplpa-NH2 (peptide)
# peptide: Ac-[dR][dL]G[dW][dS][dV]G[dI][dP]G[dS][dW][dR][dP][dL][dP][dA]-NH2
# SMILES: CC[C@@H](C)[C@@H](NC(=O)CNC(=O)[C@H](NC(=O)[C@@H](CO)NC(=O)[C@@H](Cc1c[nH]c2ccccc12)NC(=O)CNC(=O)[C@@H](CC(C)C)NC(=O)[C@@H](CCCNC(=N)N)NC(C)=O)C(C)C)C(=O)N1CCC[C@@H]1C(=O)NCC(=O)N[C@H](CO)C(=O)N[C@H](Cc1c[nH]c2ccccc12)C(=O)N[C@H](CCCNC(=N)N)C(=O)N1CCC[C@@H]1C(=O)N[C@H](CC(C)C)C(=O)N1CCC[C@@H]1C(=O)N[C@H](C)C(N)=O
# B2: Analog 16 (SEQ ID NO:21), c(rlGwsvGipGswrplparlGwsvGipGswrplpa) (peptide)
# peptide: cyclo([dR][dL]G[dW][dS][dV]G[dI][dP]G[dS][dW][dR][dP][dL][dP][dA][dR][dL]G[dW][dS][dV]G[dI][dP]G[dS][dW][dR][dP][dL][dP][dA])
# SMILES: CC[C@@H](C)[C@H]1NC(=O)CNC(=O)[C@@H](C(C)C)NC(=O)[C@@H](CO)NC(=O)[C@@H](Cc2c[nH]c3ccccc23)NC(=O)CNC(=O)[C@@H](CC(C)C)NC(=O)[C@@H](CCCNC(=N)N)NC(=O)[C@@H](C)NC(=O)[C@H]2CCCN2C(=O)[C@@H](CC(C)C)NC(=O)[C@H]2CCCN2C(=O)[C@@H](CCCNC(=N)N)NC(=O)[C@@H](Cc2c[nH]c3ccccc23)NC(=O)[C@@H](CO)NC(=O)CNC(=O)[C@H]2CCCN2C(=O)[C@@H]([C@H](C)CC)NC(=O)CNC(=O)[C@@H](C(C)C)NC(=O)[C@@H](CO)NC(=O)[C@@H](Cc2c[nH]c3ccccc23)NC(=O)CNC(=O)[C@@H](CC(C)C)NC(=O)[C@@H](CCCNC(=N)N)NC(=O)[C@@H](C)NC(=O)[C@H]2CCCN2C(=O)[C@@H](CC(C)C)NC(=O)[C@H]2CCCN2C(=O)[C@@H](CCCNC(=N)N)NC(=O)[C@@H](Cc2c[nH]c3ccccc23)NC(=O)[C@@H](CO)NC(=O)CNC(=O)[C@H]2CCCN2C1=O
# B3: Analog 14 (SEQ ID NO:15), Ac-rlawsvaipaswrplpa-NH2 (peptide)
# peptide: Ac-[dR][dL][dA][dW][dS][dV][dA][dI][dP][dA][dS][dW][dR][dP][dL][dP][dA]-NH2
# SMILES: CC[C@@H](C)[C@@H](NC(=O)[C@@H](C)NC(=O)[C@H](NC(=O)[C@@H](CO)NC(=O)[C@@H](Cc1c[nH]c2ccccc12)NC(=O)[C@@H](C)NC(=O)[C@@H](CC(C)C)NC(=O)[C@@H](CCCNC(=N)N)NC(C)=O)C(C)C)C(=O)N1CCC[C@@H]1C(=O)N[C@H](C)C(=O)N[C@H](CO)C(=O)N[C@H](Cc1c[nH]c2ccccc12)C(=O)N[C@H](CCCNC(=N)N)C(=O)N1CCC[C@@H]1C(=O)N[C@H](CC(C)C)C(=O)N1CCC[C@@H]1C(=O)N[C@H](C)C(N)=O
# B4: Analog 8 (SEQ ID NO:9), Ac-rlGwsvGipGswrplpaappppadlrdq-NH2 (peptide)
# peptide: Ac-[dR][dL]G[dW][dS][dV]G[dI][dP]G[dS][dW][dR][dP][dL][dP][dA][dA][dP][dP][dP][dP][dA][dD][dL][dR][dD][dQ]-NH2
# SMILES: CC[C@@H](C)[C@@H](NC(=O)CNC(=O)[C@H](NC(=O)[C@@H](CO)NC(=O)[C@@H](Cc1c[nH]c2ccccc12)NC(=O)CNC(=O)[C@@H](CC(C)C)NC(=O)[C@@H](CCCNC(=N)N)NC(C)=O)C(C)C)C(=O)N1CCC[C@@H]1C(=O)NCC(=O)N[C@H](CO)C(=O)N[C@H](Cc1c[nH]c2ccccc12)C(=O)N[C@H](CCCNC(=N)N)C(=O)N1CCC[C@@H]1C(=O)N[C@H](CC(C)C)C(=O)N1CCC[C@@H]1C(=O)N[C@H](C)C(=O)N[C@H](C)C(=O)N1CCC[C@@H]1C(=O)N1CCC[C@@H]1C(=O)N1CCC[C@@H]1C(=O)N1CCC[C@@H]1C(=O)N[C@H](C)C(=O)N[C@H](CC(=O)O)C(=O)N[C@H](CC(C)C)C(=O)N[C@H](CCCNC(=N)N)C(=O)N[C@H](CC(=O)O)C(=O)N[C@H](CCC(N)=O)C(N)=O
# B5: Analog 15 (SEQ ID NO:20), c(rlGwsvGipGswrplpa) (peptide)
# peptide: cyclo([dR][dL]G[dW][dS][dV]G[dI][dP]G[dS][dW][dR][dP][dL][dP][dA])
# SMILES: CC[C@@H](C)[C@H]1NC(=O)CNC(=O)[C@@H](C(C)C)NC(=O)[C@@H](CO)NC(=O)[C@@H](Cc2c[nH]c3ccccc23)NC(=O)CNC(=O)[C@@H](CC(C)C)NC(=O)[C@@H](CCCNC(=N)N)NC(=O)[C@@H](C)NC(=O)[C@H]2CCCN2C(=O)[C@@H](CC(C)C)NC(=O)[C@H]2CCCN2C(=O)[C@@H](CCCNC(=N)N)NC(=O)[C@@H](Cc2c[nH]c3ccccc23)NC(=O)[C@@H](CO)NC(=O)CNC(=O)[C@H]2CCCN2C1=O
# B6: Analog 2 (SEQ ID NO:3), Ac-APLPRWSGPIGVSWGLR-NH2 (peptide)
# peptide: Ac-APLPRWSGPIGVSWGLR-NH2
# B7: Analog 13 (SEQ ID NO:14), Ac-APLPRWSAPIAVSWALR-NH2 (peptide)
# peptide: Ac-APLPRWSAPIAVSWALR-NH2
# Target: T1, human TREK-1 potassium channel …
# Assay: cell-based or functional assay
Binder,"IC50 of TREK-1 current inhibition (dose-response, whole cell patch clamp, 0 mV) [pM]","fold higher affinity for TREK-1 channels than spadin, inferred from the IC50 of current inhibition [fold]"
B1,11500,6
B2,1,–
B3,4,–
B4,9950,6
B5,40,–
B6,60000,–
B7,40,–
